According to patent publication US20250326813A1 (ELPIS BIOPHARMACEUTICALS, published 2025):
Substitutions are numbered along the chain they refer to. Names may count otherwise. Blank lines part the entries; values can stand above or below the binder they belong to.

How the values were obtained:
[1] = target: T1, human IL2Rα Fc fusion protein (human, UniProt P01589 22-213, limits assumed); test: ELISA on coated receptor-Fc, anti-His detection; grade by OD450 (medium: 0.7-1.5)
T1 construct: also called CD25; not shown: Fc part
T1 sequence (looked up): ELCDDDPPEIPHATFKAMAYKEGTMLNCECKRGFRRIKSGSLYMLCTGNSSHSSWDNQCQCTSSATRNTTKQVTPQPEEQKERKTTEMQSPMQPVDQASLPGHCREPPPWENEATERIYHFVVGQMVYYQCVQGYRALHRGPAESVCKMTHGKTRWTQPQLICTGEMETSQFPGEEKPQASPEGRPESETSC
Procedure: (§1) Mammalian cell-produced agonists were characterized for their binding activities to respective IL2Rβ and IL2Rα receptors by ELISA. Briefly, 384 well plate was immobilized with human IL2Rα and IL2Rβ Fc fusion proteins at a final concentration of 2 μg/mL in 1× PBS in total volume of 25 μL per well. The plate was incubated overnight at 4° C. and blocked with 80 μL of superblock per well for 1 hour. The purified clones were added to IL2Rα or IL-2Rβ wells in parallel in duplicates as a titration, with the highest concentration of 1 μM, followed by a 10 point 5× serial dilution of the clones. The binding activity was detected by adding 25 μL of anti-His HRP diluted at 1:5000 in 1× PBST. In between each step, the plate was washed three times with 1× PBST using a plate washer. The plate was then developed with 25 μL of TMB substrate for five minutes and stopped by adding 25 μL of 2N sulfuric acid. The plate was read at OD450 nm Biotek plate reader and the bar graph at 1 μM of IL2 was generated with Prism 8.1 software (FIG. 2).

[2] = target: T2, human IL2Rβ Fc fusion protein (human, UniProt P14784 27-239); test: as above
T2 construct: also called ILR2β; CD122; not shown: Fc part
T2 sequence (looked up): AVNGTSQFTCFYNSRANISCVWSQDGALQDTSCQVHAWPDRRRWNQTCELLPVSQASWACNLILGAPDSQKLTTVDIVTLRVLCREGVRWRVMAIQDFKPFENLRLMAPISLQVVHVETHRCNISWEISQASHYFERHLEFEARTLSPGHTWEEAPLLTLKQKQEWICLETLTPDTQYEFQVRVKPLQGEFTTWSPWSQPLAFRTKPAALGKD
Procedure: as §1

[3] = target: T1, human IL2Rα Fc fusion protein; test: ELISA, single concentration, anti-flag detection, E. coli-produced clone
Procedure: (§2) Supernatants containing engineered IL2 mutants were assessed with sandwich ELISA assay to screen for IL2Rα binding. Briefly, 96-well plate was immobilized with human Fc and human IL2Rα, respectively, at a final concentration of 2 μg/mL in 1× PBS in total volume of 50 μL per well. The plate was incubated overnight at 4° C. followed by blocking with 200 μL of superblock per well for 1 hour. 100 μl of supernatant was added to both Fc and IL2Rα immobilized wells and incubated for 1 hour with shaking. The engineered IL2 mutant binding was detected by adding 50 μL of anti-Flag HRP diluted at 1:5000 in 1× PBST. In between each step, the plate was washed three times with 1× PBST in a plate washer. The plate was then developed with 50 μL of TMB substrate for five minutes and stopped by adding 50 μL of 2N sulfuric acid. The plate was read at OD450 nm using a Biotek plate reader and the binding and selectivity was analyzed.
as §2, with “Single clones were next screened for IL2Rβ binding. IL2Rβ binding screening ELISA was developed for the identification of individual” for “Supernatants containing”, “mutant.” for “mutants were assessed with sandwich ELISA assay to screen for IL2Rα binding.”, “IL2Rβ,” for “IL2Rα,”, “IL2Rβ” for “IL2Rα”
(§3) To further triage, the engineered IL2 clones with unique sequences were produced in E. coli. In short, the glycerol stock of each engineered agonist clone was inoculated into TB medium for overnight growth. The next day, cells from the overnight culture were inoculated into TB medium and grown to a cell density of OD₆₀₀ between 0.6-0.8. IPTG was added to a final concentration of 1 mM to induce the expression during culture at 30° C. overnight. The supernatant was collected by centrifugation.

[4] = target: T2, human IL2Rβ Fc fusion protein; test: as above
Procedure: as §2
as §2, with “Single clones were next screened for IL2Rβ binding. IL2Rβ binding screening ELISA was developed for the identification of individual” for “Supernatants containing”, “mutant.” for “mutants were assessed with sandwich ELISA assay to screen for IL2Rα binding.”, “IL2Rβ,” for “IL2Rα,”, “IL2Rβ” for “IL2Rα”
as §3

[5] = target: T1, human IL2Rα Fc fusion protein; test: SPR (Biacore T200), receptor captured on Protein A chip, IL2 at 100 nM and 20 nM
Procedure: (§4) The assay was run with Biacore T200 control software version 2.0. For each cycle, 1 μg/mL of human IL2Rβ or IL2Rα was captured for 60 seconds at flow rate of 10 μL/min on flow cell 2 in 1× HBSP buffer on Protein A sensor chip. 100 nM and 20 nM of HIS tag purified engineered IL2 mutant was injected onto both reference flow cell 1 and IL2Rβ or IL2Rα captured flow cell 2 for 150 seconds at flow rate of 30 μL/min followed by washing for 300 seconds. The flow cells were then regenerated with Glycine pH 2 for 60 seconds at a flow rate of 30 μL/mins. The kinetics data was analyzed with Biacore T200 evaluation software 3000. The specific binding response unit was derived from subtraction of binding to reference flow cell 1 from target flow cell 2.

[6] = target: T2, human IL2Rβ Fc fusion protein; test: SPR (Biacore T200), receptor captured on Protein A chip
Procedure: as §4

[7] = target: T2, human IL2Rβ Fc fusion protein; test: SPR (Biacore T200), receptor captured on Protein A chip, IL2 at 100 nM and 20 nM
Procedure: as §4

[8] = target: T2, human IL2Rβ Fc fusion protein; test: ELISA on coated receptor-Fc, anti-His detection, single point 1 µM
Procedure: Back-mutations were characterized for their binding activities to IL2Rβ and IL2Rα receptors by ELISA. Briefly, 384 well plate was immobilized with human IL2Rα and IL2Rβ Fc fusion proteins at a final concentration of 2 μg/mL in 1× PBS in total volume of 25 μL per well. The plate was incubated overnight at 4° C. and blocked with 80 μL of superblock per well for 1 hour. […] The IL2 mutant binding was detected by adding 25 μL of anti-His HRP diluted at 1:5000 in 1× PBST. In between each step, the plate was washed three times with 1× PBST using a plate washer. […] The plate was then developed with 25 μL of TMB substrate for five minutes and stopped by adding 25 μl of 2N sulfuric acid. The plate was read at OD450 nm Biotek plate reader (Table 6) and the data was analyzed with Prism 8.1 software to generate bar graph (FIG. 5).

[9] = target: T2, human IL2Rβ Fc fusion protein; test: ELISA: human IL2Rβ Fc fusion coated at 2 µg/mL, purified His-tagged IL2 titrated from 1 µM in 5x steps, anti-His HRP, OD450
Procedure: as §1

OD450 [1]: 0.7 to 1.5 od | OD450 [2]: 0.7 to 1.5 od
B1: EP565, mammalian cell-produced, with F35L, R38D and F42R (ligand)
chain: APASSSTKKTQLQLEHLLLDLQMILNGINNYKNPLLTDMLTRKFYMPKKATELKHLQCLEEELKPLEEVLNLAQSKNFHLRSRQLISNMNGIILKLKGSETTFMCEYADETATIVEFLNRWITFSQSIISTLT
notes: His-Flag tag not in the parts; also called 2021EP22-F10

OD450 nm [3]: 0.05 OD450 | OD450 nm [4]: 0.068 OD450 | Kd [5]: 188 nM
B2: EP567 (clone 2021EP21-C04), E. coli-produced (ligand)
chain: APASSSTKKTQLQLEHLLLDLQMILNGINNYKNPKLTRMLTFKFYMPKKATELKHLQCLEEELKPLEEVLNLAQSKNFHLSLREPIGNIVTSVRELKGSETTFMCEYADETATIVEFLNRWITFSQSIISTLT
binding result [6]: no binding (tested: Rmax < 5RU; 100 nM and 20 nM)

Kd [7]: 1.03 nM | Average OD (450 nm) [8]: 1.63 OD450 | EC50 (read off the curve) [9]: ~1 nM
B3: EP596, IL2Rβ enhanced binding agonist (ligand)
chain: B1 chain with R81T, S82A, Q84D, L85A, S87D, M89I, G91V, I93V, L94Q, K95E
notes: Control in SPR and ELISA
